Experimental data: article PMC10397247

How the values were obtained:
O6-bA = biological target: T1, O6-bA; experiment: two-hybrid library CCNG1;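 also: natural log of median RNA to DNA barcode read ratio; higher means stronger binding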
T1 chain: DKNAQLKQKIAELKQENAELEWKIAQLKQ

O9-bA = biological target: T2, O9-bA; experiment: two-hybrid library CCNG1;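 also: natural log of median RNA to DNA barcode read ratio; higher means stronger binding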
T2 chain: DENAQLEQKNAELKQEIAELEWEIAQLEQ

O4-bA = biological target: T3, O4-bA; experiment: two-hybrid library CCNG1;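 also: natural log of median RNA to DNA barcode read ratio; higher means stronger binding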
T3 chain: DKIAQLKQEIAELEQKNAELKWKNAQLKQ

O3-bA = biological target: T4, O3-bA; experiment: two-hybrid library CCNG1;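 also: natural log of median RNA to DNA barcode read ratio; higher means stronger binding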
T4 chain: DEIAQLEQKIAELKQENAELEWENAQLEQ

O8-bA = biological target: T5, O8-bA; experiment: two-hybrid library CCNG1;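 also: natural log of median RNA to DNA barcode read ratio; higher means stronger binding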
T5 chain: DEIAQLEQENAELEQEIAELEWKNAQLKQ

O5-bA = biological target: T6, O5-bA; experiment: two-hybrid library CCNG1;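 also: natural log of median RNA to DNA barcode read ratio; higher means stronger binding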
T6 chain: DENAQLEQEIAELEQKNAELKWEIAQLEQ

O7-bA = biological target: T7, O7-bA; experiment: two-hybrid library CCNG1
T7 chain: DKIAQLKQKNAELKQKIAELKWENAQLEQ

4H2883-AA = biological target: T8, 4H2883-AA; experiment: two-hybrid library CCmax; conditions: mean of both orientations
T8 chain: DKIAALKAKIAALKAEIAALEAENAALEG

4H3844-AA = biological target: T9, 4H3844-AA; experiment: two-hybrid library CCmax; conditions: mean of both orientations
T9 chain: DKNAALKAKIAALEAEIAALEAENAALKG

4H717-AA = biological target: T10, 4H717-AA; experiment: two-hybrid library CCmax; conditions: mean of both orientations
T10 chain: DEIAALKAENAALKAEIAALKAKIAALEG

4H2944-AA = biological target: T11, 4H2944-AA; experiment: two-hybrid library CCmax; conditions: mean of both orientations
T11 chain: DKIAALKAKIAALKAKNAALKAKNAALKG

4H3112-AA = biological target: T12, 4H3112-AA; experiment: two-hybrid library CCmax; conditions: mean of both orientations
T12 chain: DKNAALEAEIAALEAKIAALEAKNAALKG

4H566-AA = biological target: T13, 4H566-AA; experiment: two-hybrid library CCmax; conditions: mean of both orientations
T13 chain: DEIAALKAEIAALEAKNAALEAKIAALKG

4H2575-AA = biological target: T14, 4H2575-AA; experiment: two-hybrid library CCmax; conditions: mean of both orientations
T14 chain: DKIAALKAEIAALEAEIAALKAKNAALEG

4H234-AA = biological target: T15, 4H234-AA; experiment: two-hybrid library CCmax; conditions: mean of both orientations
T15 chain: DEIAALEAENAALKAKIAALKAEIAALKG

4H3921-AA = biological target: T16, 4H3921-AA; experiment: two-hybrid library CCmax; conditions: mean of both orientations
T16 chain: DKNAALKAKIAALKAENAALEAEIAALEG

4H342-AA = biological target: T17, 4H342-AA; experiment: two-hybrid library CCmax; conditions: mean of both orientations
T17 chain: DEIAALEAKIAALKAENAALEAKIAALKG

4H3627-AA = biological target: T18, 4H3627-AA; experiment: two-hybrid library CCmax; conditions: mean of both orientations
T18 chain: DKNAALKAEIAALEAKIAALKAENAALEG

4H780-AA = biological target: T19, 4H780-AA; experiment: two-hybrid library CCmax; conditions: mean of both orientations
T19 chain: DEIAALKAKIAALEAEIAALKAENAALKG

4H2277-AA = biological target: T20, 4H2277-AA; experiment: two-hybrid library CCmax; conditions: mean of both orientations
T20 chain: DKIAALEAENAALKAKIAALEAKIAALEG

4H605-AA = biological target: T21, 4H605-AA; experiment: two-hybrid library CCmax; conditions: mean of both orientations
T21 chain: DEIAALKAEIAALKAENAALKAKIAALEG

4H2466-AA = biological target: T22, 4H2466-AA; experiment: two-hybrid library CCmax; conditions: mean of both orientations
T22 chain: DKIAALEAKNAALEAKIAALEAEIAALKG

4H3343-AA = biological target: T23, 4H3343-AA; experiment: two-hybrid library CCmax; conditions: mean of both orientations
T23 chain: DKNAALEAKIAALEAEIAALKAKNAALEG

4H3655-AA = biological target: T24, 4H3655-AA; experiment: two-hybrid library CCmax
T24 chain: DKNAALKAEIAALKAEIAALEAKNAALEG

4H2754-AA = biological target: T25, 4H2754-AA; experiment: two-hybrid library CCmax; conditions: mean of both orientations
T25 chain: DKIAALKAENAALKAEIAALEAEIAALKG

4H2354-AA = biological target: T26, 4H2354-AA; experiment: two-hybrid library CCmax; conditions: mean of both orientations
T26 chain: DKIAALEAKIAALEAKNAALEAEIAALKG

4H881-AA = biological target: T27, 4H881-AA; experiment: two-hybrid library CCmax; conditions: mean of both orientations
T27 chain: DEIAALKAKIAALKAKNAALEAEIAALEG

4H678-AA = biological target: T28, 4H678-AA; experiment: two-hybrid library CCmax; conditions: mean of both orientations
T28 chain: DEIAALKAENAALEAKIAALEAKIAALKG

4H2393-AA = biological target: T29, 4H2393-AA; experiment: two-hybrid library CCmax; conditions: mean of both orientations
T29 chain: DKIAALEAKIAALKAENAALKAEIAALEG

4H794-AA = biological target: T30, 4H794-AA; experiment: two-hybrid library CCmax; conditions: mean of both orientations
T30 chain: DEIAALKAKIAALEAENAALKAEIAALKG

4H2165-AA = biological target: T31, 4H2165-AA; experiment: two-hybrid library CCmax; conditions: mean of both orientations
T31 chain: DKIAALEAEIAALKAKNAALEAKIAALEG

4H993-AA = biological target: T32, 4H993-AA; experiment: two-hybrid library CCmax; conditions: mean of both orientations
T32 chain: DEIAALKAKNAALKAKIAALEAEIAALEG

4H2949-AA = biological target: T33, 4H2949-AA; experiment: two-hybrid library CCmax; conditions: mean of both orientations
T33 chain: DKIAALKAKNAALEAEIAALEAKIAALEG

4H249-AA = biological target: T34, 4H249-AA; experiment: two-hybrid library CCmax
T34 chain: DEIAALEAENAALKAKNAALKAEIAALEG

4H2837-AA = biological target: T35, 4H2837-AA; experiment: two-hybrid library CCmax; conditions: mean of both orientations
T35 chain: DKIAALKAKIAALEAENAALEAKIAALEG

4H2190-AA = biological target: T36, 4H2190-AA; experiment: two-hybrid library CCmax; conditions: mean of both orientations
T36 chain: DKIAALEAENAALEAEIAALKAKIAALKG

4H3427-AA = biological target: T37, 4H3427-AA; experiment: two-hybrid library CCmax; conditions: mean of both orientations
T37 chain: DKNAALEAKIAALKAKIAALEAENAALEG

4H429-AA = biological target: T38, 4H429-AA; experiment: two-hybrid library CCmax; conditions: mean of both orientations
T38 chain: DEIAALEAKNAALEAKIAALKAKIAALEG

4H2505-AA = biological target: T39, 4H2505-AA; experiment: two-hybrid library CCmax; conditions: mean of both orientations
T39 chain: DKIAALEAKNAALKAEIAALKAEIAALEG

4H317-AA = biological target: T40, 4H317-AA; experiment: two-hybrid library CCmax; conditions: mean of both orientations
T40 chain: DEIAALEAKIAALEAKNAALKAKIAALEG

4H906-AA = biological target: T41, 4H906-AA; experiment: two-hybrid library CCmax; conditions: mean of both orientations
T41 chain: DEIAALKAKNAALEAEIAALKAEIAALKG

4H48-AA = biological target: T42, 4H48-AA; experiment: two-hybrid library CCmax; conditions: mean of both orientations
T42 chain: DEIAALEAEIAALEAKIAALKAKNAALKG

4H2078-AA = biological target: T43, 4H2078-AA; experiment: two-hybrid library CCmax
T43 chain: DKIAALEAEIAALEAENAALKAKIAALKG

4H454-AA = biological target: T44, 4H454-AA; experiment: two-hybrid library CCmax; conditions: mean of both orientations
T44 chain: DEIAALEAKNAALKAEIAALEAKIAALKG

4H2151-AA = biological target: T45, 4H2151-AA; experiment: two-hybrid library CCmax; conditions: mean of both orientations
T45 chain: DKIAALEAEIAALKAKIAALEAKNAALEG

4H2642-AA = biological target: T46, 4H2642-AA; experiment: two-hybrid library CCmax; conditions: mean of both orientations
T46 chain: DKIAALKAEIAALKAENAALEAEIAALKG

4H2617-AA = biological target: T47, 4H2617-AA; experiment: two-hybrid library CCmax; conditions: mean of both orientations
T47 chain: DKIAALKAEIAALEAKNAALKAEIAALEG

4H3606-AA = biological target: T48, 4H3606-AA; experiment: two-hybrid library CCmax; conditions: mean of both orientations
T48 chain: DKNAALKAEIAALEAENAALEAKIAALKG

4H335-AA = biological target: T49, 4H335-AA; experiment: two-hybrid library CCmax; conditions: mean of both orientations
T49 chain: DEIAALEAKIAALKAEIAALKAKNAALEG

4H2729-AA = biological target: T50, 4H2729-AA; experiment: two-hybrid library CCmax; conditions: mean of both orientations
T50 chain: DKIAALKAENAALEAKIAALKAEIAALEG

P9bHq = biological target: T51, P9bHq; experiment: two-hybrid library CCNG1
T51 chain: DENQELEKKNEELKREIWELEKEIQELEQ

P8bHq = biological target: T52, P8bHq; experiment: two-hybrid library CCNG1
T52 chain: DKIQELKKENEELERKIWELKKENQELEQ

B1: O3-bA (peptide)
chain: DEIAQLEQKIAELKQENAELEWENAQLEQ
interaction score (O6-bA): -0.618 | interaction score (O9-bA): -0.712 | interaction score (O4-bA): 2.34 | interaction score (O3-bA): -0.685 | interaction score (O8-bA): -1.12 | interaction score (O5-bA): -0.75 | interaction score (O7-bA): -0.831

B2: 4H2078-AA (peptide)
chain: DKIAALEAEIAALEAENAALKAKIAALKG
interaction score (4H2883-AA): 0.158 | interaction score (4H3844-AA): -0.801 | interaction score (4H717-AA): -1.62 | interaction score (4H2944-AA): 0.298 | interaction score (4H3112-AA): -0.952 | interaction score (4H566-AA): -1.05 | interaction score (4H2575-AA): -0.721 | interaction score (4H234-AA): -0.505 | interaction score (4H3921-AA): 2.02 | interaction score (4H342-AA): 2.14 | interaction score (4H3627-AA): -0.14 | interaction score (4H780-AA): -1.14 | interaction score (4H2277-AA): -1.09 | interaction score (4H605-AA): 1.68 | interaction score (4H2466-AA): -0.982 | interaction score (4H3343-AA): -1.08 | interaction score (4H3655-AA): -1.22 | interaction score (4H2754-AA): 0.637 | interaction score (4H2354-AA): -0.00435 | interaction score (4H881-AA): 2.31 | interaction score (4H678-AA): -0.466 | interaction score (4H2393-AA): 2.47 | interaction score (4H794-AA): 1.84 | interaction score (4H2165-AA): 0.246 | interaction score (4H993-AA): -1.03 | interaction score (4H2949-AA): -1.02 | interaction score (4H249-AA): 0.347 | interaction score (4H2837-AA): 1.93 | interaction score (4H2190-AA): 1.33 | interaction score (4H3427-AA): -0.664 | interaction score (4H429-AA): 1.79 | interaction score (4H2505-AA): 1.62 | interaction score (4H317-AA): 1.93 | interaction score (4H906-AA): -0.59 | interaction score (4H48-AA): 0.504 | interaction score (4H2078-AA): 1.98 | interaction score (4H454-AA): -0.599 | interaction score (4H2151-AA): -1.39 | interaction score (4H2642-AA): 2.25 | interaction score (4H2617-AA): 2.35 | interaction score (4H3606-AA): -0.297 | interaction score (4H335-AA): 0.35 | interaction score (4H2729-AA): 0.661

B3: P8bHq (peptide)
chain: DKIQELKKENEELERKIWELKKENQELEQ
interaction score (P9bHq): -1.36 | interaction score (P8bHq): -0.229
